# Assay results reported in patent publication US20260159596A1 (published 2026).
# T1: recombinant DR3 (DR3-His tag) (human, UniProt Q93038 25-199)
# T1 chain: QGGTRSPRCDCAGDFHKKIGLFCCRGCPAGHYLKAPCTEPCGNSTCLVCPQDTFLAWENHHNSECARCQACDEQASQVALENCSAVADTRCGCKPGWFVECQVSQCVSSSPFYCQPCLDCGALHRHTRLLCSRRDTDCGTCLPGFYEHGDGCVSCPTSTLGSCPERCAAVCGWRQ
# Target: T1, recombinant DR3 (DR3-His tag)
# Assay: SPR
row,Binder,Kd
1,"TL1A (tumor necrosis factor-like ligand 1A), His tag (ligand) LKGQEFAPSHQQVYAPLRADGDKPRAHLTVVRQTPTQHFKNQFPALHWEHELGLAFTKNRMNYTNKFLLIPESGDYFIYSQVTFRGMTSECSEIRQAGRPNKPDSITVVITKVTDSYPEPTQLLMGTKSVCEVGSNWFQPIYLGAMFSLQEGDKLMVNVSDISLVDYTKEDKTFFGAFLL",426 nM
2,"clone 4-4 IgG2 monoclonal antibody (antibody, V domains shown) VH: EVQLVESGGGLVKPGGSLRLSCAASGFTFSDYYMSWIRQAPGKGLEWVSYISSSSSYTNYADSVKGRFTISRDNAKNSLYLQMNSLRAEDTAVYYCASNVDTAMVGAFDIWGQGTLVTVS VL: DIEMTQSPSSVSASVGDTVTITCRASQHISNWLAWYQQKPGQAPKFLIYTASNLQSGVPSRFSGSGYGTDFTLTISGLQPEDFATYYCQQADSFPLTFGGGTKVDIK",35.8 nM
3,"anti-DR3 6-15 monoclonal antibody (antibody, V domains shown) VH: QVQLVQSGGGLVQPGGSLRLSCAASGFTFSSYSMNWVRQAPGKGLEWVSYISSSSSTIYYADSVKGRFTISRDNAKNSLYLQMNSLRAEDTAVYYCARWDGYCSGGSCYSGMDYWGQGTLVTVS VL: DIEMTQSPSSLSASVGDKVTITCQASQDISNYLNWYQQKPGKAPKLLIYDASNLETGVPSRFSGSGSGTDSTFTISSLQPEDIATYYCQQYDNLPLTFGGGTKVEIK",82.4 nM

# The next binders have a lower Kd than those just listed; values first:
row,Kd,Binder
1,3.91 nM,"anti-DR3 6-2 monoclonal antibody (antibody, V domains shown) VH: QVQLVQSGGGLVQPGGSLRLSCAASGFTFSSYSMNWVRQAPGKGLEWVSYISSSSSTIYYADSVKGRFTISRDNAKNSLYLQMNSLRAEDTAVYYCARWDGYCSGGSCYSGMDYWGQGTLVTVS VL: not shown"
2,1.56 nM,"clone 4-4 IgG1 monoclonal antibody (antibody, V domains shown) VH: EVQLVESGGGLVKPGGSLRLSCAASGFTFSDYYMSWIRQAPGKGLEWVSYISSSSSYTNYADSVKGRFTISRDNAKNSLYLQMNSLRAEDTAVYYCASNVDTAMVGAFDIWGQGTLVTVS VL: DIEMTQSPSSVSASVGDTVTITCRASQHISNWLAWYQQKPGQAPKFLIYTASNLQSGVPSRFSGSGYGTDFTLTISGLQPEDFATYYCQQADSFPLTFGGGTKVDIK"
3,0.693 nM,"anti-DR3 2-10 monoclonal antibody (antibody, V domains shown) VH: QVQLVQSGAEVKKPGASVKVSCKASGYTFTSYGISWVRQAPGQGLEWMGWISAYNGNTNYAQKLQGRVTMTTDTSTSTAYMELRSLRSDDTAVYYCASGPDYGMLDYWGQGTLVTVS VL: EIVMTQSPSSLPASVGDRVTITCQASQDISNYLNWYQQKPGKAPKLLIYDASNLETGVPSRFSGSGSGTDFTFTISSPQPEDIATYYCQQYDNLPLTFGGGTKVEIK"
4,0.0463 nM,"anti-DR3 3-18 monoclonal antibody (antibody, V domains shown) VH: QVQLQQSGPGLVKPSETLSLTCTVSGGSISSSSYYWGWIRQPPGKGLEWIGSIYYSGSTYYNPSLKSRVTISVDTSKNQFSLKLSSVTAADTAVYYCARQVSGPLDYWGQGTLVTVS VL: DIVMTQSPSSLSASVGDRVTITCRASQGIRNDLGWYQQKPGKAPKLLIYAASSLQSGVPSRFSGSGSGTDFTLTISSLQPEDFATYYCLQDYNYPRTFGQGTKVEIK"
